Laboratory results from publication PMC3537517, “In vitro substrate phosphorylation by Ca^2+/calmodulin-dependent protein kinase kinase using guanosine-5^′-triphosphate as a phosphate donor” (BMC Biochemistry, 2012).

Columns and labels:
CaMKKβ = biological target: T1, CaMKKβ (Rattus norvegicus, UniProt O88831); test: […]-GTP kinase assay with GST-CaMKIα ([…]-293, K49E); Lineweaver-Burk; format: biochemical
T1 construct: gene Camkk2; recombinant CaMKKβ purified from E. coli; with calmodulin (Ca2+/CaM)

CaMKKα = biological target: T2, CaMKKα (Rattus norvegicus, UniProt P97756); test: as above; format: biochemical
T2 construct: gene Camkk1; recombinant CaMKKα purified from E. coli; with calmodulin (Ca2+/CaM)

[1] = tested on: Nc1nc2c(ncn2[C@@H]2O[C@H](COP(=O)(O)OP(=O)(O)OP(=O)(O)O)[C@@H](O)[C@H]2O)c(=O)[nH]1; test: purified protein; conditions: Mg2+, Ca2+ phosphate donor; STO-609 competes with GTP; 30.0 °C
[2] = tested on: Nc1ncnc2c1ncn2[C@@H]1O[C@H](COP(=O)(O)OP(=O)(O)OP(=O)(O)O)[C@@H](O)[C@H]1O; test: purified protein; conditions: Mg2+, Ca2+ phosphate donor; 30.0 °C

T1 sequence (O88831 2-587): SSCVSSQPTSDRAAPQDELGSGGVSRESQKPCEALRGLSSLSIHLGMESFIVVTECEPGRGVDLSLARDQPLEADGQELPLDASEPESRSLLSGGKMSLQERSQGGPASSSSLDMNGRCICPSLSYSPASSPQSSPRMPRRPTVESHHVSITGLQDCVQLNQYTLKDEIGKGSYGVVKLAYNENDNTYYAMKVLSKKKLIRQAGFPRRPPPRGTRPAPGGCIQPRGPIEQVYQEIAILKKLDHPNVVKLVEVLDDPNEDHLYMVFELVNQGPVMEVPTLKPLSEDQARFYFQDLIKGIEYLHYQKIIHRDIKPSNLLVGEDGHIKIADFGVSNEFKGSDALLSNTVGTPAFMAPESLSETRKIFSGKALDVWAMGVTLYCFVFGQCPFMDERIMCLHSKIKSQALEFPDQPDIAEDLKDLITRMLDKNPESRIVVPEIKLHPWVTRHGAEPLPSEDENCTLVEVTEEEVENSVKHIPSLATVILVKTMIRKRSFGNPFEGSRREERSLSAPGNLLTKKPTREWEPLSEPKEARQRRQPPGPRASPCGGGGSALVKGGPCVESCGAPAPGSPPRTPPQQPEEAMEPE
T2 sequence (P97756 whole entry): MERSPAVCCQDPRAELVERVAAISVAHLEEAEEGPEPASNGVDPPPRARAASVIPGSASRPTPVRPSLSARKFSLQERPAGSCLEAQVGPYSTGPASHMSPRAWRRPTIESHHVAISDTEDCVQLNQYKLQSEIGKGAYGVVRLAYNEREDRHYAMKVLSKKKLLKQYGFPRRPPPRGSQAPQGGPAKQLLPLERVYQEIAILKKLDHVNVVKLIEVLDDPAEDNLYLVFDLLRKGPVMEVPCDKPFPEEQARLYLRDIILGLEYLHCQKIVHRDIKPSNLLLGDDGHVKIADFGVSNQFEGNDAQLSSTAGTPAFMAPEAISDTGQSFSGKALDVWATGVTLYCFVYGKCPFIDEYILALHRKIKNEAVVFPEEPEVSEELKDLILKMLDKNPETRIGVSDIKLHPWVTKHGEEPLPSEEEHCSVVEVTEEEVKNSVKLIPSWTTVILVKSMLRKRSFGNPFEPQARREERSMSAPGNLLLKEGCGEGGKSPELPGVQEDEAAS

| IC50 (CaMKKβ) [nM] | IC50 (CaMKKα) [nM] | Compound | Km [1] [µM] | Vmax [1] [µmol/min/mg] | Km [2] [µM] | Vmax [2] [µmol/min/mg] |
| --- | --- | --- | --- | --- | --- | --- |
| 38.2 | 255 | O=C(O)c1ccc2c3c1cccc3c(=O)n1c3ccccc3nc21 [STO-609, 7H-benzimidazo[2,1-a]benz[de]isoquinoline-7-one-3-carboxylic acid] | – | – | – | – |
| – | – | CaMKKα (Rattus norvegicus) | 444 | 0.312 | 15 | 0.625 |
| – | – | CaMKKβ (Rattus norvegicus) | 507 | 0.077 | 15 | 0.286 |
